Reference: patent US20240368286A1 (SHANGHAI JMT BIO TECHNOLOGY, published 2024)
Changes are numbered by the printed parent chain.

T1: Human GFRAL-His protein (human, UniProt Q6UXV0 19-351)
T1 construct: also called human GFRAL-His fusion protein; not shown: His tag
T1 sequence (looked up): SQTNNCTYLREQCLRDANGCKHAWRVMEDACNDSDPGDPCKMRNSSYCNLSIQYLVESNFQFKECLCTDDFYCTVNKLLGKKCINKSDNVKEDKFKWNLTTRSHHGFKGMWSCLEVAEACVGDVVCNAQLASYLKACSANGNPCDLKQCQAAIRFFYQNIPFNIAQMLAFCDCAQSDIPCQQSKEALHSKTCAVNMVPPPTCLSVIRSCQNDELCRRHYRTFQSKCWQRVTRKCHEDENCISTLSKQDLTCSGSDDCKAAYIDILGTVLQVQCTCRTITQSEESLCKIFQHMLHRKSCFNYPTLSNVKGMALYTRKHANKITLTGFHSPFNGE

T2: Human GFRAL (hGFRAL) on HEK293 reporter cells with human RET (human, UniProt Q6UXV0 19-394)
T2 sequence (looked up): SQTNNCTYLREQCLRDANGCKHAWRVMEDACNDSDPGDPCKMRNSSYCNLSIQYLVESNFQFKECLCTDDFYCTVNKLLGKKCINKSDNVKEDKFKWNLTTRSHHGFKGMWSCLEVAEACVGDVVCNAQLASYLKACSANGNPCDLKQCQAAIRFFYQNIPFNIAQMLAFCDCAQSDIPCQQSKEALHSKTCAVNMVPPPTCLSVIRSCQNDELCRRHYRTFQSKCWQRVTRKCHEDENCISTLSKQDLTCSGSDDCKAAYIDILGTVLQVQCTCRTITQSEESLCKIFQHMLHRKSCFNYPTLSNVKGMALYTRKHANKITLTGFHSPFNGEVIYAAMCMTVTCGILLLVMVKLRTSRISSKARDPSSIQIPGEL

T3: Mouse GFRAL (mGFRAL) on HEK293 reporter cells with mouse RET (mouse, UniProt Q6SJE0 20-393)
T3 sequence (looked up): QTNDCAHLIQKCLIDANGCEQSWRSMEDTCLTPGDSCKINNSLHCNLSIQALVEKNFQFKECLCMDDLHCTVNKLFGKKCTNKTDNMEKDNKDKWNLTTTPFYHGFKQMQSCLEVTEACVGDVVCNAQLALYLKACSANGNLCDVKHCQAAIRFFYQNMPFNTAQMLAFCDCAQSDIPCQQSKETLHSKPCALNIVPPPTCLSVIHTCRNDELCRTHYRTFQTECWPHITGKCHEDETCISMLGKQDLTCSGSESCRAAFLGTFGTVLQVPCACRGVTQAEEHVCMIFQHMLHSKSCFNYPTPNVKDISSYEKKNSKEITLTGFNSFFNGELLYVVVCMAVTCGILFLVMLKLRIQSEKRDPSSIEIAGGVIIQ

B1: 33B12 (antibody, V domains shown)
VH: QVQLQQPGTELVKPGASVKLSCKASGYTFTRNWMHWLKQRPGQGLEWIGEIDPSDSYTHYNQKFKGKATLTVEMSSSTAYMQLRSLTSEDSAVYYCARVGNYDNGTDRLYAMDYWGQGTSVTVSS
VL: DIVLTQSPASLAVSLGQRATISCRASESVDNFGNTFLHWFRQKPGQPPKLLIYRASNLESGIPARFSGSGSRTDFTLTINPVEADDVATYYCQQNNEDPWTFGGGTKLEIK
notes: Murine hybridoma antibody, purified
B2: 96C12 (antibody, V domains shown)
VH: RVQLRESGPGLVAPSQSLSITCTVSGFSLTGYSVNWVRQPPGKGLEWLGMIWGDGSTDYNSALKSRLSISKDNSKSQVFLKMNSLQTDDTARYYCARDRDYRYDGGYIMDSWGQGTSVTVSS
VL: B1 VL with A9G, T35S, F40Y, R41Q, I62V, N80S, N95S, W100R, K111R
notes: as for B1
B3: 82G8 (antibody, V domains shown)
VH: QVQLKESGPGLVAPSQSLSITCTVSGFSLTGHGVNWVRQPPGKGLEWLGMIWGDGYTDYNSALKSRLSISKDNSKSQVFLKMNSLQTDDTATYYCARDTYGRTYDYAMDYWGQGTSVTVSS
VL: B1 VL with T20A, F32Y, T35S, L37M, F40Y, R41Q, N95S, W100R
notes: as for B1
B4: 36D1 (antibody, V domains shown)
VH: B1 VH with L11F, E73D, M74K, R84S, T106K
VL: B1 VL
notes: as for B1
B5: 61G8 (antibody, V domains shown)
VH: QVQLKESGPGLVAPSQSLSITCTVSGFSLTGYGVNWVRQSPGKGLEWLGMIWGDGTTDYNSALKSRLTIRKDNSKSQVFLRMNSLQTDDTARYYCARDPKYNYGYAMDYWGQGTSVTVSS
VL: DIVLTQAPGSLAVSLGQRATISCRASESVDNFGNSFMHWYQQKPGQSPKLLIYRASNLESGIPARFSGSGSRTDFTLTINPVEADDVATYYCQQTNEEPYTFGGGTKLEIE
notes: as for B1
B6: 90E1 (antibody, V domains shown)
VH: EVQLQQSGPELVKPGASVKMSCKASGYTFTSYVIHWVKQEPGQGLEWIGYINPYNDDINYNEKFKGKATLTSDKSSSTAYMEFSSLTSEDSAVYYCARYDYDWYFDVWGAGTAVTVSS
VL: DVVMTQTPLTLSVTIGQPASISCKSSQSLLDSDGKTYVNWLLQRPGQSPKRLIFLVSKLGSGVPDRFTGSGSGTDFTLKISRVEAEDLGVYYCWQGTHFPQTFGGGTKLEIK
B7: 2D4H6aL6b (antibody, V domains shown)
VH: EVQLVESGGGLVKPGGSLRLSCAASGFTFSSFVMSWVRQAPGKGLEWVASITSGGTTFYPESVRGRFTISRDNAKNTLYLQMSSLRAEDTAVYYCARGPPQFSSLSMDYWGQGTTVTVSS
VL: DIQMTQSPSSLSASVGDRVTITCKASQNVGTAVSWFQQKPGKAPKLLIYSASNRYTGVPSRFSGSGSGTDFTLTISSLQPEDFATYYCQQYSSLFTFGGGTKLEIK
B8: 2D4H6cL6c (antibody, V domains shown)
VH: B7 VH with E61D, R64K, K75R, T77I
VL: B7 VL with V19I, S60D
B9: 2D4-mVH + mVL (antibody, V domains shown)
VH: EVNLVESGGGLVKPGGPLKLSCAASGFTFSSFVMSWVRQTPEKRLEWVASITSGGTTFYPDSVKGRFTISRDNARNILYLQMSNLRSGDTAMYYCARGPPQFSSLSMDYWGQGTSVTVSS
VL: DIVMTQSQKFMSTSVGDRITITCKASQNVGTAVSWFQQKPGQVPKLLIYSASNRYTGVPDRFTGSGSGTEFTLTISNIQSEDLADYFCQQYSSLFTFGSGTKLEIK
B10: 26D7H1aL2a (antibody, V domains shown)
VH: QVQLVQSGAEVKKPGASVKVSCKASGYTFTDYGMNWVRQAPGQGLEWMGWINTYTGEPTYADDFKDRVTMTTDTSTSTAYMELRSLRSDDTAVYYCARRYGYDAGIDAWGQGTLVTVSS
VL: EIVLTQSPGTLSLSPGERATLSCRASESVDSYGNNLMHWYQQKPGQAPRLLIYLASYLESGVPDRFSGSGSGTDFTLTISRLEPEDFATYYCQQNNESPWTFGQGTKVEIK
B11: 26D7H2aL2a (antibody, V domains shown)
VH: B10 VH with A24V, M48V, V68F, M70F, T72L, Y95F
VL: B10 VL
B12: 26D7H2dL2a (antibody, V domains shown)
VH: B10 VH with V20I, E46K, M70F, T72L, T74A
VL: B10 VL
B13: 26D7H4aL4a (antibody, V domains shown)
VH: QIQLVQSGAEVKKPGASVKISCKVSGYTFTDYGMNWVRQTPGQGLKWVGWINTYTGEPTYADDFKDRFTFTLDASTSTAYLEIRSLRSDDTAVYFCARRYGYDAGIDAWGQGTLLTVSS
VL: B10 VL with L13V, L21I, D64A, G72R, L82V, V108L
B14: 26D7H5eL5c (antibody, V domains shown)
VH: QVQLVQSGSELKKPGASVKVSCKVSGYTFTDYGMNWVRQAPGQGLEWVGWINTYTGEPTYADDFKDRFVFSLDTSVSTAYLQISSLKAEDTAVYYCARRYGYDAGIDAWGQGTTVTVSS
VL: DIVLTQSPASLAVSPGQRATITCRASESVDSYGNNLMHWYQQKPGQPPKLLIYLASYLESGVPARFSGSGSGTDFTLTINPVEANDTANYYCQQNNESPWTFGGGTKLEIK
B15: 26D7-mVH + mVL (antibody, V domains shown)
VH: QIQLVQSGPELKKPGETVKISCKVSGYTFTDYGMNWVKQTPGKDLKWVGWINTYTGEPTYADDFKDRFAFSLEASASTAYLQINNLKNEDTATYFCARRYGYDAGIDCWGQGTTLTVSS
VL: B14 VL with D1N, A9P, P15L, T22S, G72R, N80D, N85D, T87A, N89T, S98D
B16: 26D7H5fL5c (antibody, V domains shown)
VH: B14 VH with V2I, V20I, T74A
VL: B14 VL

Target: Cynomolgus monkey GFRAL-His protein (cynomolgus monkey)
Experiment: ELISA, antigen coated on plate, purified antibody titrated, HRP anti-mouse IgG detection
Procedure: (§1) The ELISA assay had the following protocols. Human GFRAL-His protein, cynomolgus monkey GFRAL-His protein, or mouse GFRAL-Fc protein were coated on 96-well plates, and after blocking the wells with PBS/1% BSA solution, the hybridoma supernatant or purified antibodies were added to the reaction wells. After incubation for 1 hour at room temperature, HRP-labeled anti-mouse IgG (Fab region) antibody was added to the reaction wells to incubate for an additional hour at room temperature. After the substrate and stop solution were added successively, the OD₄₅₀ values were read. The OD₄₅₀ values were used to verify and assess the binding ability of the antibodies to the GFRAL proteins.

Row | EC50 [nM] | Binder
1 | 0.08 | B1
2 | 0.03 | B2
3 | 0.04 | B3
4 | 0.07 | B4
5 | 0.08 | B5

Target: T1, Human GFRAL-His protein
Experiment: as above
Procedure: as §1

Row | EC50 [nM] | Binder
6 | 0.06 | B1
7 | 0.03 | B2
8 | 0.03 | B3
9 | 0.18 | B4
10 | 0.07 | B5

Target: T2, Human GFRAL (hGFRAL) on HEK293 reporter …
Experiment: cell-based or functional assay

Row | IC50 (nM), luciferase reporter gene assay, Human GFRAL/human RET [nM] | Binder
11 | 7.04 | B1
12 | 6.42 | B2
13 | 5.67 | B3
14 | 6.89 | B4
15 | 81.4 | B6
16 | 11.6 | B5

Target: T3, Mouse GFRAL (mGFRAL) on HEK293 reporter …
Experiment: cell-based or functional assay

Row | IC50 (nM), luciferase reporter gene assay, Mouse GFRAL/mouse RET [nM] | Binder
17 | > 694 | B1
18 | > 694 | B2
19 | > 694 | B3
20 | > 694 | B4
21 | 75.5 | B6
22 | > 694 | B5

Target: T2, Human GFRAL (hGFRAL) on HEK293 reporter …
Experiment: cell-based or functional assay
Remark: another data set of the same source

Row | IC50 (nM), luciferase reporter gene assay, Human GFRAL/human RET [nM] | Binder
23 | 24.4 | B7
24 | 22.5 | B8
25 | 23.8 | B9
26 | 2.6 | B10
27 | 7.6 | B11
28 | 6.5 | B12
29 | 5.7 | B13
30 | 8.3 | B14
31 | 8.7 | B15
32 | 8.9 | B16

Target: T3, Mouse GFRAL (mGFRAL) on HEK293 reporter …
Experiment: cell-based or functional assay
Remark: another data set of the same source

Row | IC50 (nM), luciferase reporter gene assay, Mouse GFRAL/mouse RET [nM] | Binder
33 | 1.4 | B7
34 | 1.3 | B8
35 | 1.4 | B9
36 | 7.7 | B10
37 | 1.6 | B11
38 | 3 | B12
39 | 0.1 | B13
40 | 0.7 | B14
41 | 0.7 | B15
42 | 0.4 | B16
